Test results from patent US20140120109A1 (Regeneron, published 2014).

T1: human DR3, full-length, expressed on HEK293 NFkB-luciferase reporter cells (human, UniProt Q93038 25-417)
T1 sequence: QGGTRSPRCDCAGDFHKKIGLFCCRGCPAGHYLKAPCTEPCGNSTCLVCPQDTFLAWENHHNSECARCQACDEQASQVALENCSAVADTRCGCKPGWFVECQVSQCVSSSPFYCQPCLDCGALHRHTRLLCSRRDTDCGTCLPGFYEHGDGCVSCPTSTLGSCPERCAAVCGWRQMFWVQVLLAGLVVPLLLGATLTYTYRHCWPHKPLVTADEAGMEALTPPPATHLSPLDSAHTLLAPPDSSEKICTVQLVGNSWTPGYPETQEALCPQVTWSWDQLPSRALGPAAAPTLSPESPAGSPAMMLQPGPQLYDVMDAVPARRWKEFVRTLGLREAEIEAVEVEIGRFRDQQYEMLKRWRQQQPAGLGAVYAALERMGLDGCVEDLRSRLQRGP

T2: mouse DR3, full-length, expressed on HEK293 NFkB-luciferase reporter cells (mouse)
T2 chain: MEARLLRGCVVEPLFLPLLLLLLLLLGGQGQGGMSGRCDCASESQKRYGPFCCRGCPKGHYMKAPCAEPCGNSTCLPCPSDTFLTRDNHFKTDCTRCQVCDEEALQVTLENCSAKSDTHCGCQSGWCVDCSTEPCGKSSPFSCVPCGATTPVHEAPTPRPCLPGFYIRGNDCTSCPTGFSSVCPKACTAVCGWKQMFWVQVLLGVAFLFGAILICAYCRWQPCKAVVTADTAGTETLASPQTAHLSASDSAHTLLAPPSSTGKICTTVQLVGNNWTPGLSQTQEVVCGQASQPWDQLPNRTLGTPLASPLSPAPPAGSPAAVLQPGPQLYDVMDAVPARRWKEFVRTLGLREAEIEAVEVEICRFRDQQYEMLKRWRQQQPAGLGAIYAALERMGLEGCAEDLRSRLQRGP

T3: Fhm, hTL1A(Q167R), soluble, E. coli-expressed, residues 72-251 of SEQ ID NO:246 (human, UniProt O95150 72-251)
T3 construct: with or without N-terminal Met
T3 chain: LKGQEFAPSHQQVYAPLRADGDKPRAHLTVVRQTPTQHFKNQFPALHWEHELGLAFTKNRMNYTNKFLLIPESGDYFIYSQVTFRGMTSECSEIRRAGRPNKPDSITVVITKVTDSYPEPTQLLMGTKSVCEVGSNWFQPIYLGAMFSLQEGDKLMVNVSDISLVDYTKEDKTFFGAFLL

T4: cynomolgus monkey TL1A, soluble, E. coli-expressed, residues 72-251 of SEQ ID NO:248 (cynomolgus monkey (Macaca fascicularis), UniProt O95150 72-251 (human entry))
T4 construct: with or without N-terminal Met; also called MfTL1A (E. Coli)
T4 chain: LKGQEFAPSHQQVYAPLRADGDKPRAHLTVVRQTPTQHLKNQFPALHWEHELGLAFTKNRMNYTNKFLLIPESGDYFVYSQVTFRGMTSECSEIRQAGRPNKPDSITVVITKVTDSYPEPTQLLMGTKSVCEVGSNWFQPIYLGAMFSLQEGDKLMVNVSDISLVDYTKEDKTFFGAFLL

T5: mouse TL1A, soluble, E. coli-expressed, residues 76-252 of SEQ ID NO:250 (mouse, UniProt Q5UBV8 76-252)
T5 construct: with or without N-terminal Met; also called mTL1A (E. Coli)
T5 sequence: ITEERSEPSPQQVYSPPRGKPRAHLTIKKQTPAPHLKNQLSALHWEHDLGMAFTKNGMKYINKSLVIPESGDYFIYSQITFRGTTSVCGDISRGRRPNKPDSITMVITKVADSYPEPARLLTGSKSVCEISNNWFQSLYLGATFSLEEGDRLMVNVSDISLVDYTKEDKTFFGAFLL

T6: human TL1A, soluble, CHO-expressed, residues 72-251 of SEQ ID NO:244 with N-terminal His6-tag (human, UniProt O95150 72-251)
T6 construct: also called hTL1A; hTL1A (CHO)
T6 sequence: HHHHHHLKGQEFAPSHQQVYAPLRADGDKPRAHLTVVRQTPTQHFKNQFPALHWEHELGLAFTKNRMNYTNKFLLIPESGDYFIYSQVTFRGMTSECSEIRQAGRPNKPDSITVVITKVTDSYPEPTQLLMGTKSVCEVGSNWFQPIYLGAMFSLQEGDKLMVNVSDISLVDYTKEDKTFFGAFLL

T7: cynomolgus monkey TL1A, soluble, CHO-expressed, residues 72-251 of SEQ ID NO:248 with N-terminal His6-tag (cynomolgus monkey (Macaca fascicularis), UniProt O95150 72-251 (human entry))
T7 construct: also called MfTL1A; MfTL1A (CHO)
T7 chain: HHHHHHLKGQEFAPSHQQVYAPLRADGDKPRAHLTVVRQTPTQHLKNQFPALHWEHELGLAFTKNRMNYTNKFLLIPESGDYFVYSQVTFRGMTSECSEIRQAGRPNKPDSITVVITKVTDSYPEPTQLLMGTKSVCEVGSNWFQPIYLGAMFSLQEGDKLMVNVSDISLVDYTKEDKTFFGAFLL

T8: Fhm, hTL1A(Q167R), soluble, CHO-expressed, residues 72-251 of SEQ ID NO:246 (human, UniProt O95150 72-251)
T8 construct: also called Fhm (CHO); FHM (CHO)
T8 chain: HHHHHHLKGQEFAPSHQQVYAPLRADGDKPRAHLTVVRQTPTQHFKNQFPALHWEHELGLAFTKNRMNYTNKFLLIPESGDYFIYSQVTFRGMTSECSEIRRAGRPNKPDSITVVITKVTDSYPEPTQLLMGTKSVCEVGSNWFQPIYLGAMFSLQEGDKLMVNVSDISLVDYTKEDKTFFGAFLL


How the values were obtained:
[1] = target: T1, human DR3, full-length, expressed on …; assay: cell-based or functional assay
[2] = target: T2, mouse DR3, full-length, expressed on …; assay: cell-based or functional assay
[3] = target: T3, Fhm, hTL1A(Q167R), soluble, E. …; assay: SPR 25C, mAb captured
Method: (§1) Measurements were conducted on a T100 BIACORE™ instrument. […] Kinetic association (kₐ) and dissociation (kd) rate constants were determined by fitting the data to a 1:1 binding model using BIAevaluation 4.1 curve fitting software (BIAcore Life Sciences). Molar concentrations of TL1A/Fhm used in the data fitting assumed a monomeric state for TL1A in solution. Binding dissociation equilibrium constants (KD) and dissociative half-lives (t_{1/2}) were calculated from the kinetic rate constants as: KD (M)=kd/kₐ; and t_{1/2} (min)=[In2/(60*kd)].

[4] = target: T4, cynomolgus monkey TL1A, soluble, E. …; assay: SPR 25C, mAb captured
Method: as §1

[5] = target: T4, cynomolgus monkey TL1A, soluble, E. …; assay: SPR 37C, mAb captured
Method: as §1

[6] = target: T5, mouse TL1A, soluble, E. coli-expressed, …; assay: SPR 25C, steady state
Method: as §1, with “Binding dissociation equilibrium constants (KD) and dissociative half-lives (t_{1/2}) were calculated from the kinetic rate constants as: KD (M)=kd/kₐ; and t_{1/2} (min)=[In2/(60*kd)].” left out

[7] = target: T6, human TL1A, soluble, CHO-expressed, …; assay: ELISA, blocks hTL1A (10 pM) binding hDcR3-Fc
Method: (§2) The ability of antibodies to block human TL1A binding to its cognate receptors, the DR3 and DcR3 receptors, was measured using a competition sandwich ELISA. In addition, blocking of a human TL1A variant FHM (human TL1A Q167R) and the cynomolgus monkey (Macaca fascicularis) TL1A (MfTL1A) protein binding to the human DR3 or DcR3 receptors was measured in the same manner. Constant amounts of biotinylated human TL1A or FHM (both expressed with a 6-His tag in CHO cells) or biotinylated MfTL1A (expressed in CHO cells) were separately titrated with varying amounts of antibodies. The antibody-protein complexes were incubated in solution (1 hr, 25° C.) and then transferred to microtiter plates coated with human DR3 (hDR3) or human DcR3 (hDcR3) expressed as human IgG1 Fc fusion proteins. After one hour at 25° C. the wells were washed, and bound human or monkey TL1A was detected with streptavidin conjugated with horseradish peroxidase (HRP). Wells were developed with a TMB solution to produce a colorimetric reaction and quenched with aqueous sulfuric acid before reading absorbance at 450 nm on a Perkin-Elmer Victor X5 plate reader. A sigmoidal dose-response curve was fit to the data using the Prism™ data analysis package. […] Both fully human anti-hTL1A mAbs and comparator antibodies, i.e., control mAb1 (an anti-hTL1A antibody with heavy and light chain variable domains having the amino acid sequences corresponding to SEQ ID NOS:21 and 27, respectively, of US 2009/0280116) and control mAb3 (an anti-hTL1A antibody with heavy and light chain variable domains having the amino acid sequences corresponding to SEQ ID NOS:57 and 48, respectively, of US 2009/0280116), were included in the study. NB: No binding under the conditions tested; NT: Not tested. Concentrations of biotinylated soluble ligands: (1) 150 pM; (2) 500 pM; (3) 10 pM; and (4) 50 pM.

[8] = target: T6, human TL1A, soluble, CHO-expressed, …; assay: ELISA, blocks hTL1A (150 pM) binding hDR3-Fc
Method: as §2

[9] = target: T7, cynomolgus monkey TL1A, soluble, …; assay: ELISA, blocks MfTL1A (50 pM) binding hDcR3-Fc
Method: as §2

[10] = target: T7, cynomolgus monkey TL1A, soluble, …; assay: ELISA, blocks MfTL1A (500 pM) binding hDR3-Fc
Method: as §2

[11] = target: T8, Fhm, hTL1A(Q167R), soluble, …; assay: ELISA, blocks FHM (150 pM) binding hDR3-Fc; blocking of FHM binding to hDR3
Method: as §2

Binder	EC50 (cells), NFkB-luciferase reporter [1] [cells]	EC50 (cells), NFkB-luciferase reporter [2] [cells]	Kd [3] [nM]	t1/2 [3] [h]	Kd [4] [nM]	t1/2 [4] [h]	Kd [5] [nM]	t1/2 [5] [h]	binding result [6]	IC50 [7] [nM]	IC50 [8] [nM]	IC50 [9] [nM]	IC50 [10] [nM]	IC50 [11] [nM]	Kd [6] [nM]
full-length cynomolgus monkey TL1A expressed on HEK293 cells (ligand) MAEDLGLSFGETASVEMLPEHGSCRPKARSSSACWALTCCLVLLPFLAGLTTYLLVSQLRAQGEACVQLQDLKGQEFAPSHQQVYAPLRADGDKPRAHLTVVRQTPTQHLKNQFPALHWEHELGLAFTKNRMNYTNKFLLIPESGDYFVYSQVTFRGMTSECSEIRQAGRPNKPDSITVVITKVTDSYPEPTQLLMGTKSVCEVGSNWFQPIYLGAMFSLQEGDKLMVNVSDISLVDYTKEDKTFFGAFLL	8460	–	–	–	–	–	–	–	–	–	–	–	–	–	–
full length mouse TL1A expressed on HEK293 cells (ligand) MAEELGLGFGEGVPVEVLPEGCRHRPEARAGLAARSKACLALTCCLLSFPILAGLSTLLMAGQLRVPGKDCMLRAITEERSEPSPQQVYSPPRGKPRAHLTIKKQTPAPHLKNQLSALHWEHDLGMAFTKNGMKYINKSLVIPESGDYFIYSQITFRGTTSVCGDISRGRRPNKPDSITMVITKVADSYPEPARLLTGSKSVCEISNNWFQSLYLGATFSLEEGDRLMVNVSDISLVDYTKEDKTFFGAFLL	–	12400	–	–	–	–	–	–	–	–	–	–	–	–	–
full length rat TL1A expressed on HEK293 cells (ligand) MAEELGLGFGEAVPVEMLPEGCRHRREARTGLAARSKACLALTCCLLSFPILAGLSTLLMTGQLRIPGKDCMFPTVTEERSAPSAQPVYTPSRDKPKAHLTIMRQTPVPHLKNELAALHWENNLGMAFTKNRMNYTNKFLVIPESGDYFIYSQITFRGTTSECGDISRVRRPKKPDSITVVITKVADSYPEPAHLLTGTKSVCEISSNWFQPIYLGAMFSLEEGDRLMVNVSDISLVDYTKEDKTFFGAFLI	–	9770	–	–	–	–	–	–	–	–	–	–	–	–	–
H2M1804N (antibody, V domains shown, chimeric hybridoma antibody: human variable regions, mouse constant regions (mouse Fc)) VH: QVQLHQWGAGLLKPSETLSLTCAVSGVSFSDYHWAWIRQSPGKGLEWIGDINHRGRTNYNPSLKSRVTISLDTSGNPFSLKLTSVTAADTAVYYCARDFPNWVFDSWGQGILVTVSS VL: EIVLSQSPGTLSLSPGERATLSCRASQSVSSSFLAWYQQYPGQAPRLLIYGASRRATGIPDRFRGSGSGTDFTLTISRLEPEDFAVYYCQQYGSSPLTFGGGTKVENK	–	–	0.192	1.8	0.176	2.87	0.218	1.97	no binding (tested: up to 100 nM)	0.12	0.046	0.009	0.081	0.102	–
H2M1818N (antibody, V domains shown, chimeric hybridoma antibody: human variable regions, mouse constant regions (mouse Fc)) VH: RLQLVESGGGLVKPGGSLKLSCAASGFTISDYYMSWIRQAPGKGLEWVSYIGGSGSTIYYADSVKGRFTISRDNAKNSLYLQMNSLRAEDTAVYYCAREDADSYYYYGMDVWGQGTTVTVSS VL: not shown	–	–	1.08	0.283	1.84	0.167	4.1	0.05	–	0.396	0.154	0.055	0.239	0.317	171
